The test system of series [1] is Sis7dWT (native, methylated) (Sulfolobus islandicus E234). Kind of series: BLI. The following applies: BLI: 20 mM Tris-HCl pH 6.8, 100 mM KCl, 1 mM EDTA, 0.05% Tween-20, 30°C; pull-down: 10 mM HEPES pH 7.6, 100 mM KCl, 2.5 mM MgCl2, 0.1 mg/mL BSA, room ….
The test system of another series is rSis7d. The experiment in a line: BLI. The following applies: BLI: 20 mM Tris-HCl pH 6.8, 100 mM KCl, 1 mM EDTA, 0.05% Tween-20, 30°C; pull-down: 10 mM HEPES pH 7.6, 100 mM KCl, 2.5 mM MgCl2, 0.1 mg/mL BSA, room ….
Series [2] has as its system Sis7dΔaKMT (native, unmodified) (Sulfolobus islandicus ΔaKMT). The experiment in a line: BLI. The settings on record: BLI: 20 mM Tris-HCl pH 6.8, 100 mM KCl, 1 mM EDTA, 0.05% Tween-20, 30°C; pull-down: 10 mM HEPES pH 7.6, 100 mM KCl, 2.5 mM MgCl2, 0.1 mg/mL BSA, room ….
In a further series the target is T1, Cren7 K48Q K48Q (UniProt C3NHU3).
T1 sequence: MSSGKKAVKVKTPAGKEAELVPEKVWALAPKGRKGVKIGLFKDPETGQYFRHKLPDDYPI
Kind of series: DNA-cellulose pull-down (bridging). The following applies: BLI: 20 mM Tris-HCl pH 6.8, 100 mM KCl, 1 mM EDTA, 0.05% Tween-20, 30°C; pull-down: 10 mM HEPES pH 7.6, 100 mM KCl, 2.5 mM MgCl2, 0.1 mg/mL BSA, room ….

In another series the target is T2, Cren7 K42Q K42Q (UniProt C3NHU3).
T2 sequence: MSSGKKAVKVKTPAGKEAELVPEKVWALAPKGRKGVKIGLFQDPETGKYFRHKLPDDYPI
Kind of series: DNA-cellulose pull-down (bridging). The settings on record: BLI: 20 mM Tris-HCl pH 6.8, 100 mM KCl, 1 mM EDTA, 0.05% Tween-20, 30°C; pull-down: 10 mM HEPES pH 7.6, 100 mM KCl, 2.5 mM MgCl2, 0.1 mg/mL BSA, room ….

For the next series, the target named is T3, Cren7 K31Q K31Q (UniProt C3NHU3).
T3 sequence: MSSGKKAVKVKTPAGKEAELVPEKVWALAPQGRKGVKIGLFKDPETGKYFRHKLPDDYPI
The experiment in a line: DNA-cellulose pull-down (bridging). The following applies: BLI: 20 mM Tris-HCl pH 6.8, 100 mM KCl, 1 mM EDTA, 0.05% Tween-20, 30°C; pull-down: 10 mM HEPES pH 7.6, 100 mM KCl, 2.5 mM MgCl2, 0.1 mg/mL BSA, room ….

A further series concerns the target T4, Cren7 K24Q K24Q (UniProt C3NHU3).
T4 sequence: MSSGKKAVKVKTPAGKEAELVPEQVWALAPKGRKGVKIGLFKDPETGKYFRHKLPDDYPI
The experiment in a line: DNA-cellulose pull-down (bridging). The settings on record: BLI: 20 mM Tris-HCl pH 6.8, 100 mM KCl, 1 mM EDTA, 0.05% Tween-20, 30°C; pull-down: 10 mM HEPES pH 7.6, 100 mM KCl, 2.5 mM MgCl2, 0.1 mg/mL BSA, room ….

The target in series [3] is T5, Cren7WT (native, methylated) (Sulfolobus islandicus E234) (UniProt C3NHU3).
T5 sequence: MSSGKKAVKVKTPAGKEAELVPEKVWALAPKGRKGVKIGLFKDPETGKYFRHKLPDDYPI
Kind of series: DNA-cellulose pull-down (bridging). The settings on record: BLI: 20 mM Tris-HCl pH 6.8, 100 mM KCl, 1 mM EDTA, 0.05% Tween-20, 30°C; pull-down: 10 mM HEPES pH 7.6, 100 mM KCl, 2.5 mM MgCl2, 0.1 mg/mL BSA, room ….

For series [4], the target named is T6, rCren7 (UniProt C3NHU3 1-60).
T6 sequence: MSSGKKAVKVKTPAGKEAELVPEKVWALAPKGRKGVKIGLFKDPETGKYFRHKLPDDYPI
The experiment in a line: DNA-cellulose pull-down (bridging). The settings on record: dsDNA-cellulose, 2.5 mM MgCl2, BLI: 20 mM Tris-HCl pH 6.8, 100 mM KCl, 1 mM EDTA, 0.05% Tween-20, 30°C, pull-down: 10 mM HEPES pH 7.6, 100 mM KCl, 2.5 mM MgCl2, 0.1 mg/mL BSA, room ….

The target of a further series is T7, Cren7 K42Q (UniProt C3NHU3 1-60, K42Q).
T7 sequence: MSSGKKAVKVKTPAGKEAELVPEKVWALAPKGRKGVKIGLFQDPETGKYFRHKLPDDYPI
The experiment in a line: BLI; BLI: 20 mM Tris-HCl pH 6.8, 100 mM KCl, 1 mM EDTA, 0.05% Tween-20, 30°C; pull-down: 10 mM HEPES pH 7.6, 100 mM KCl, 2.5 mM MgCl2, 0.1 mg/mL BSA, room temperature. The following applies: protein: recombinant; label: 5' biotin on strand 1; blunt. For orientation: BLI is a label-free optical method that tracks binding on a fibre tip over time.

A further series addresses T8, Cren7 K48Q (UniProt C3NHU3 1-60, K48Q).
T8 sequence: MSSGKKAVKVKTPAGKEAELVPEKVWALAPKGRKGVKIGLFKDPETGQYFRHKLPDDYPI
Described as above. The following applies: protein: recombinant; label: 5' biotin on strand 1; blunt.

The target in the next series is T9, Cren7 K24Q (UniProt C3NHU3 1-60, K24Q).
T9 sequence: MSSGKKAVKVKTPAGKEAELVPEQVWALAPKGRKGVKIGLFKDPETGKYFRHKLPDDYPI
The series is described as above. The following applies: protein: recombinant; label: 5' biotin on strand 1; blunt.

For series [5], the target named is T6, rCren7. The description is as above. The settings on record: protein: recombinant; label: 5' biotin on strand 1; blunt.
The next series has as its target T10, Cren7 K31Q (UniProt C3NHU3 1-60, K31Q).
T10 sequence: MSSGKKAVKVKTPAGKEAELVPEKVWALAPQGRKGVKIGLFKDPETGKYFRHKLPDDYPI
Described as above. The following applies: protein: recombinant; label: 5' biotin on strand 1; blunt.

On to “TAGAGCCCTAGTCTTCCAAACTAGCTACGC (double strand) [D30]”, for which the Kd in series [1] was found to be 1640 nM; in the series on rSis7d, 1040 nM; in [2] it was 1370 nM.
As for pBR322, the binding signal with Cren7 K48Q K48Q, in the series with Cren7 K42Q K42Q, in the series with Cren7 K31Q K31Q and with Cren7 K24Q K24Q was < 10 % of rCren7 throughout. In addition, the binding signal (% (barely detected)) in [3] was under 10. The binding signal (% input pulled down) in the series with rCren7 [4] (5 uM protein) was 18; in the series with rCren7 [4] (10 uM protein) it was 35.

B1: D30 (dsDNA)
DNA 1: TAGAGCCCTAGTCTTCCAAACTAGCTACGC
DNA 2: GCGTAGCTAGTTTGGAAGACTAGGGCTCTA
As for B1, the Kd with Cren7 K42Q stood at 1120 nM; with Cren7 K48Q, 199 nM; with Cren7 K24Q, 217 nM; with rCren7 [5], 125 nM; in the series with Cren7 K31Q, 103 nM.

A word on the Kd: it is the equilibrium constant for the complex coming apart.

Values taken from publication PMC8927968, “Lysine Methylation Modulates the Interaction of Archaeal Chromatin Protein Cren7 With DNA”.
